Results as given in the Human Domainome abundance scans (Beltran et al. 2025).

B1: Far upstream element-binding protein 2, residues 142 to 214; numbered along this chain, Q92945 (parent)
chain: RTSMTEEYRVPDGMVGLIIGRGGEQINKIQQDSGCKVQISPDSGGLPERSVSLTGAPESVQKAKMMLDDIVSR

Variants of: B1
Assay: abundance fitness (aPCA) (normalised: wild type 0, dead -1); higher = more abundant; growth selection in yeast, the domain comes from the species named
Settings: Homo sapiens

Abundance fitness: each site, then its substitutions
V37: W -0.916 | I -0.014 | N -1.21 | F -0.677 | D -0.597 | H -0.962 | Q -0.811 | A -0.372 | M -0.14 | K -0.965 | T -0.484 | G -0.905 | C -0.144 | P -0.62
Q31: T 0.015 | P -0.98 | R -0.069 | Y -0.166 | W -0.316 | H -0.005 | I -0.135 | M -0.073 | D -0.16 | A -0.109 | K -0.137 | V -0.207 | S -0.136 | F -0.105 | E -0.08
G34: R -0.307 | H -0.384 | M -0.391 | W -1.02 | L -0.396 | V -0.96 | T -0.537 | K -0.319 | S -0.357 | D -0.274 | Q -0.247 | N -0.219 | I -0.877 | F -0.887 | P -1.16 | E -0.243 | A -0.365 | C -0.356 | Y -0.998
K36: G -0.431 | M -0.03 | F -0.32 | E -0.036 | Q -0.034 | R -0.058 | I -0.095 | S -0.066 | N 0.073 | P -0.918 | W -0.283 | A -0.082 | T 0.005 | L -0.043 | V -0.001 | C -0.182 | Y -0.047 | D 0.021 | H -0.06
Q38: N -0.025 | C -0.019 | I -0.038 | A 0.02 | Y 0.027 | G -0.172 | H 0.095 | M 0.007 | E 0.129 | T 0.033 | P -0.831 | R -0.028 | K -0.068 | V -0.001 | F -0.075 | L -0.112 | D -0.112
